Measurements taken from publication PMC2721222 (Cancer research, 2009).

T1: His-tagged MUC1 cytoplasmic domain (UniProt P15941 1182-1255)
T1 sequence (looked up): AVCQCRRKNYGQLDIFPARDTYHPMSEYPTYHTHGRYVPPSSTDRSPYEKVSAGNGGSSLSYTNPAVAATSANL


Key:
[1] = target: MUC1-CD cytoplasmic domain (Homo sapiens) (UniProt P15941); details: cited from earlier work
[2] = target: T1, His-tagged MUC1 cytoplasmic domain; test: SPR

Row | Kd [2] [nM] | Molecule | Kd [1] [nM]
1 |  | MUC1-CD cytoplasmic domain (from UniProt P15941) | 33
2 | 30 | CQCRRKNYGQLDIFP (poly D-arginine transduction domain (D-residues)) [GO-201] | 
